For this experiment, the target named is wt ACE2_(740)-Fc (M31) (human) (UniProt Q9BYF1). Kind of experiment: SPR. In general terms: In SPR one partner is held on a chip, and binding of the other changes the refractive index at the surface.
wt ACE2_(740)-Fc (M31) (human), sequence (Q9BYF1 18-740): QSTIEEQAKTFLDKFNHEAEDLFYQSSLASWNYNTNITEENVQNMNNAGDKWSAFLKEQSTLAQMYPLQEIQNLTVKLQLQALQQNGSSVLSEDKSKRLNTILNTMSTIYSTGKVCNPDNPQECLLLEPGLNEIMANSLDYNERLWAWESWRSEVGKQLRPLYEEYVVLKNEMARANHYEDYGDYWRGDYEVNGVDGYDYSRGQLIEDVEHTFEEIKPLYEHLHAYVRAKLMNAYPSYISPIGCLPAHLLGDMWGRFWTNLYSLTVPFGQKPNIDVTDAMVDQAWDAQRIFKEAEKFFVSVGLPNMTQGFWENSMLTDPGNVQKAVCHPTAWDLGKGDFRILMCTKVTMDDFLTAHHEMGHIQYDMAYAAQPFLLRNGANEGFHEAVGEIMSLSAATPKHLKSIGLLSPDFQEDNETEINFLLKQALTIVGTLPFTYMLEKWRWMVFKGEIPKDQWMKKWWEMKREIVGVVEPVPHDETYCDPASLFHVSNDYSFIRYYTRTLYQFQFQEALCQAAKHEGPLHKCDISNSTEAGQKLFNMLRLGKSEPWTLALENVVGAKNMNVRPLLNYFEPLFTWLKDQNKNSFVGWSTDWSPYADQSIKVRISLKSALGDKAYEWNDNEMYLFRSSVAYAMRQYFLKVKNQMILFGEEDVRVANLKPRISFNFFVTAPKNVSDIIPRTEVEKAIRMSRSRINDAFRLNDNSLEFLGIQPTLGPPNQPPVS

“SARS-CoV-2 RBDwt (residue 319–541) (from UniProt P0DTC2 319-541) (domain or fragment; other documents disagree on this pair)”: the Kd – broadly, the concentration at which binding is half-saturated – stood at 0.0139 µM.

The values are drawn from PMC8629194.
